Experimental data reported in US20060003330A1, “Streptococcus pneumoniae pbp2x mini-protein and uses thereof” (COMMISSARIAT A L'ENERGIE ATOMIQUE CENTRE NATIONAL DE LA …, priority 2002, published 2006).

Test: Solubility of purified mini-PBP2x (concentration without precipitating)
Assay type: physicochemical
Conditions: purified protein

B1: Mini-PBP2x: Modified recombinant protein derived from PBP2x of β-lactam-sensitive S. pneumoniae strain R6, with deletions in the n-PB domain replaced by Gly linkers (protein, listed as Streptococcus pneumoniae)
chain: GSGAKRGTIYDRNGVPIAEDATSGGPNRSYPNGQFASSFIGGGMESSLNSILAGGGGDGKDVYTTISSPLQSFMETQMDAFQEKVKGKYMTATLVSAKTGEILATTQRPTFDADTKEGITEDFVWRDILYQSNYEPGSTMKVMMLAAAIDNNTFPGGEVFNSSELKIADATIRDWDVNEGLTGGRTMTFSQGFAHSSNVGMTLLEQKMGDATWLDYLNRFKFGVPTRFGLTDEYAGQLPADNIVNIAQSSFGQGISVTQTQMIRAFTAIANDGVMLEPKFISAIYDPNDQTARKSQKEIVGNPVSKDAASLTRTNMVLVGTDPVYGTMYNHSTGKPTVTVPGQNVALKSGTAQIADEKNGGYLVGLTDYIFSAVSMSPAENPDFILYVTVQQPEHYSGIQLGEFANPILERASAMKDSLNLQTTAKALEQVSQQSPYPMPSVKDISPGDLAEELRRNLVQPIVVGTGTKIKNSSAEEGKNLAPNQQVLILSDKAEEVPDMYGWTKETAETLAKWLNIELEFQGSGSTVQKQDVRANTAIKDIKKITLTLGD
  solubility (can be concentrated without precipitating): ≥ 15 mg/mL
